Results reported in the supplement of paper PMC9112550, “Optimization of the antimicrobial peptide Bac7 by deep mutational scanning” (BMC Biology, 2022).

System: Escherichia coli TOP10
Assay: shrunken log2 fold change of peptide-encoding DNA abundance (4.5 h post-induction vs induction); higher = less antimicrobial activity (less host growth inhibition)
Details: time post-induction: 4.5 h; library: site-saturation at positions 5, 18, 19, 20
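Note: peptides expressed intracellularly from a pBAD plasmid library in pooled LB shake-flask culture, induced with 0.3% L-arabinose, DNA abundance read by NGS, three biological replicates, DESeq2 with apeglm shrinkage.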

RRIRMRPPRLPRPRPRPQDPPRP was tested, and the “shrunken log2 fold change” value was 0.786.

For RRIRSRPPRLPRPRPRPMLVPRP, the “shrunken log2 fold change” value was -0.0894.

RRIRYRPPRLPRPRPRPINTPRP was tested, and the “shrunken log2 fold change” value was -0.274.

With RRIRQRPPRLPRPRPRPTFTPRP the “shrunken log2 fold change” value was -0.222.

RRIRLRPPRLPRPRPRPLAGPRP was tested, and the “shrunken log2 fold change” value was 0.0705.

For RRIRKRPPRLPRPRPRPPQWPRP, the “shrunken log2 fold change” value was 1.37.

For RRIRRRPPRLPRPRPRPDKFPRP, the “shrunken log2 fold change” value was 0.0835.

For RRIRARPPRLPRPRPRPACIPRP, the “shrunken log2 fold change” value was 0.171.

RRIRIRPPRLPRPRPRPFIPPRP was tested, and the “shrunken log2 fold change” value was -0.697.

In the case of RRIRNRPPRLPRPRPRPTIEPRP, the “shrunken log2 fold change” value was 0.0325.

RRIRFRPPRLPRPRPRPNECPRP was tested, and the “shrunken log2 fold change” value was -0.00063.

For RRIRHRPPRLPRPRPRPIYRPRP, the “shrunken log2 fold change” value was -0.111.

For RRIRRRPPRLPRPRPRPTPFPRP, the “shrunken log2 fold change” value was 0.632.

RRIRTRPPRLPRPRPRPPGFPRP was tested, and the “shrunken log2 fold change” value was 0.287.

With RRIRFRPPRLPRPRPRPYCDPRP the “shrunken log2 fold change” value was -0.535.

With RRIRNRPPRLPRPRPRPRQQPRP the “shrunken log2 fold change” value was 0.365.

With RRIRCRPPRLPRPRPRPRTWPRP the “shrunken log2 fold change” value was 0.326.

RRIRIRPPRLPRPRPRPMLNPRP was tested, and the “shrunken log2 fold change” value was -0.526.

With RRIRQRPPRLPRPRPRPIMIPRP the “shrunken log2 fold change” value was -0.452.

For RRIRMRPPRLPRPRPRPANQPRP, the “shrunken log2 fold change” value was 0.191.

For RRIRLRPPRLPRPRPRPHVCPRP, the “shrunken log2 fold change” value was -0.247.

In the case of RRIRLRPPRLPRPRPRPEVFPRP, the “shrunken log2 fold change” value was 0.0607.

RRIRMRPPRLPRPRPRPWWNPRP was tested, and the “shrunken log2 fold change” value was 0.045.

With RRIRYRPPRLPRPRPRPPWYPRP the “shrunken log2 fold change” value was -0.786.

For RRIRCRPPRLPRPRPRPTHRPRP, the “shrunken log2 fold change” value was 0.426.

RRIRVRPPRLPRPRPRPHKYPRP was tested, and the “shrunken log2 fold change” value was -0.725.

With RRIRVRPPRLPRPRPRPYEIPRP the “shrunken log2 fold change” value was -0.14.

With RRIRLRPPRLPRPRPRPGVCPRP the “shrunken log2 fold change” value was 0.195.

In the case of RRIRMRPPRLPRPRPRPNGEPRP, the “shrunken log2 fold change” value was 0.278.

With RRIRCRPPRLPRPRPRPQYEPRP the “shrunken log2 fold change” value was -0.119.

In the case of RRIRHRPPRLPRPRPRPALYPRP, the “shrunken log2 fold change” value was -0.033.

For RRIRCRPPRLPRPRPRPVLGPRP, the “shrunken log2 fold change” value was 0.0642.

For RRIRDRPPRLPRPRPRPCSWPRP, the “shrunken log2 fold change” value was 0.654.

RRIRYRPPRLPRPRPRPWACPRP was tested, and the “shrunken log2 fold change” value was -0.263.

RRIRRRPPRLPRPRPRPGTRPRP was tested, and the “shrunken log2 fold change” value was 0.117.

For RRIRARPPRLPRPRPRPRGFPRP, the “shrunken log2 fold change” value was 0.604.

For RRIRYRPPRLPRPRPRPHKRPRP, the “shrunken log2 fold change” value was -0.163.

For RRIRERPPRLPRPRPRPTCKPRP, the “shrunken log2 fold change” value was -0.0222.

In the case of RRIRWRPPRLPRPRPRPKIKPRP, the “shrunken log2 fold change” value was -0.0556.

For RRIRCRPPRLPRPRPRPCTHPRP, the “shrunken log2 fold change” value was -0.48.

RRIRTRPPRLPRPRPRPCSRPRP was tested, and the “shrunken log2 fold change” value was -0.182.

With RRIRYRPPRLPRPRPRPAPSPRP the “shrunken log2 fold change” value was -0.0165.

RRIRCRPPRLPRPRPRPHMEPRP was tested, and the “shrunken log2 fold change” value was -0.194.

In the case of RRIRQRPPRLPRPRPRPARRPRP, the “shrunken log2 fold change” value was 0.486.

With RRIRLRPPRLPRPRPRPRQVPRP the “shrunken log2 fold change” value was -0.0496.

In the case of RRIRQRPPRLPRPRPRPCANPRP, the “shrunken log2 fold change” value was 0.00875.

With RRIRIRPPRLPRPRPRPCCFPRP the “shrunken log2 fold change” value was -0.725.

RRIRLRPPRLPRPRPRPVDMPRP was tested, and the “shrunken log2 fold change” value was -0.375.

With RRIRLRPPRLPRPRPRPVSCPRP the “shrunken log2 fold change” value was -0.0041.

For RRIRARPPRLPRPRPRPASKPRP, the “shrunken log2 fold change” value was 0.0747.

RRIRNRPPRLPRPRPRPFNTPRP was tested, and the “shrunken log2 fold change” value was -0.765.

RRIRLRPPRLPRPRPRPSWMPRP was tested, and the “shrunken log2 fold change” value was -0.167.

With RRIRARPPRLPRPRPRPAHDPRP the “shrunken log2 fold change” value was 0.184.

With RRIRKRPPRLPRPRPRPTVGPRP the “shrunken log2 fold change” value was 0.197.

For RRIRGRPPRLPRPRPRPVWEPRP, the “shrunken log2 fold change” value was 0.761.

With RRIRHRPPRLPRPRPRPGGGPRP the “shrunken log2 fold change” value was 0.684.

RRIRTRPPRLPRPRPRPYGDPRP was tested, and the “shrunken log2 fold change” value was 0.00839.

With RRIRMRPPRLPRPRPRPQHMPRP the “shrunken log2 fold change” value was -0.355.

For RRIRNRPPRLPRPRPRPKEMPRP, the “shrunken log2 fold change” value was -0.0529.

With RRIRSRPPRLPRPRPRPWQKPRP the “shrunken log2 fold change” value was 0.14.

RRIRFRPPRLPRPRPRPFENPRP was tested, and the “shrunken log2 fold change” value was -0.0822.

With RRIRPRPPRLPRPRPRPYTLPRP the “shrunken log2 fold change” value was -0.54.

In the case of RRIRWRPPRLPRPRPRPMGYPRP, the “shrunken log2 fold change” value was -0.132.

For RRIRPRPPRLPRPRPRPSIRPRP, the “shrunken log2 fold change” value was -0.306.

With RRIRPRPPRLPRPRPRPFQKPRP the “shrunken log2 fold change” value was -0.163.

RRIRPRPPRLPRPRPRPAYGPRP was tested, and the “shrunken log2 fold change” value was 0.144.

With RRIRWRPPRLPRPRPRPKGSPRP the “shrunken log2 fold change” value was 0.0359.

For RRIRRRPPRLPRPRPRPPPNPRP, the “shrunken log2 fold change” value was 0.951.

RRIRKRPPRLPRPRPRPFLVPRP was tested, and the “shrunken log2 fold change” value was 0.00497.

With RRIRARPPRLPRPRPRPVCGPRP the “shrunken log2 fold change” value was 0.653.

With RRIRWRPPRLPRPRPRPDLPPRP the “shrunken log2 fold change” value was 0.0222.

RRIRTRPPRLPRPRPRPWPCPRP was tested, and the “shrunken log2 fold change” value was -0.0128.

With RRIRWRPPRLPRPRPRPYTVPRP the “shrunken log2 fold change” value was -0.29.

In the case of RRIRIRPPRLPRPRPRPPHAPRP, the “shrunken log2 fold change” value was 0.162.

In the case of RRIRDRPPRLPRPRPRPATSPRP, the “shrunken log2 fold change” value was 0.303.

In the case of RRIRVRPPRLPRPRPRPSGDPRP, the “shrunken log2 fold change” value was -0.251.

With RRIRCRPPRLPRPRPRPQSFPRP the “shrunken log2 fold change” value was -0.253.

In the case of RRIRIRPPRLPRPRPRPSLYPRP, the “shrunken log2 fold change” value was -0.535.

For RRIRLRPPRLPRPRPRPAGPPRP, the “shrunken log2 fold change” value was 0.338.

With RRIRLRPPRLPRPRPRPSWWPRP the “shrunken log2 fold change” value was 1.77.

RRIRNRPPRLPRPRPRPKMTPRP was tested, and the “shrunken log2 fold change” value was -0.149.

RRIRQRPPRLPRPRPRPIHQPRP was tested, and the “shrunken log2 fold change” value was -0.15.

In the case of RRIRMRPPRLPRPRPRPINYPRP, the “shrunken log2 fold change” value was -0.22.

With RRIRDRPPRLPRPRPRPAQVPRP the “shrunken log2 fold change” value was -0.286.

For RRIRNRPPRLPRPRPRPKMRPRP, the “shrunken log2 fold change” value was 0.313.

RRIRGRPPRLPRPRPRPPHVPRP was tested, and the “shrunken log2 fold change” value was 1.04.

RRIRDRPPRLPRPRPRPWEPPRP was tested, and the “shrunken log2 fold change” value was -1.35.

RRIRQRPPRLPRPRPRPFSKPRP was tested, and the “shrunken log2 fold change” value was -0.218.

With RRIRWRPPRLPRPRPRPVHPPRP the “shrunken log2 fold change” value was -0.23.

For RRIRARPPRLPRPRPRPQCEPRP, the “shrunken log2 fold change” value was 0.724.

With RRIRIRPPRLPRPRPRPDGIPRP the “shrunken log2 fold change” value was -0.0104.
